Source: patent publication US11466067B2 (priority 2019, dated 2022)

What was measured:
[1] = Pan-colonic administration via sigmoidoscopy in NHP: plasma PK/PD; format: in vivo, cynomolgus monkeys
Method: IL-10 delivery construct solution (at concentrations of 0.1, 0.3 and 1.0 mg/mL for the low, mid and high-dose groups respectively) was administered via the rectal route using sigmoidoscopy and a syringe connected to a spray nozzle with a 360° spray pattern. Serial biopsy samples were collected by sigmoidoscopy (pre-dose, 0.25, 0.5, 0.75, 8 and 24-28 hours post dose). Serial plasma samples from 0 min pre-dose to between 24-28 hours post-dose were collected for analysis for the IL-10 delivery construct.

[2] = test system: cells of the Lamina propria; assay: Cell targeting in the Lamina propria after intraluminal injection (immunofluorescence); format: in vivo, Wistar rats
Method: Rats were anesthetized using inhaled isoflurane and euthanized by inhaled CO2.
Experiments were initiated by making an approximately 4 cm abdominal incision to access the mid-jejunum region of the small intestine. After performing the incision, 50 μl of a prepared solution of the IL-10 delivery construct (typically at about 1 mg/mL) was injected into the intestinal lumen of an area devoid of foodstuffs through a 27-gauge needle using a 1 mL syringe. The mesentery adjacent to the site of injection was labeled with a marker and the intestine was returned to the abdominal cavity, with the incision being closed with clamps.
At specific times, the injected intestine was retrieved, surgically isolated and flushed with a 4° C. isotonic PBS. Washed, excised samples were fixed (4% paraformaldehyde in PBS) overnight at 4° C. before dehydration through graded series of ethanol/water solutions and overnight incubation in chloroform.
Dehydrated tissues were immersed in wax, sectioned, and mounted on poylysine slides and processed for antigen retrieval using sodium citrate. Afterward, sections were permeabilised with 0.2% Triton-X100 in PBS prior to thrice washing in PBS and blocking with 2% BSA+2% serum of the animal the secondary antibodies have been raised. Primary antibodies were diluted in 1% BSA, 0.1% Triton-X100 in PBS and incubated overnight at 4° C. in humidified air. Fluorescent secondary antibodies were diluted in 1% BSA, 0.1% Triton-X100 in PBS and incubated for 2 h at RT prior to processing for confocal microscopy. On occasion, an approximately 1 cm section of intestine at the injection site was collected for biochemical studies.
Proteins for specific cell types were examined by immuno-fluorescence using confocal microscopy. The IL-10 delivery construct components (the carrier, also referred to herein as “cholix,” and IL-10) were followed separately with either a polyclonal antibody (pAb) or monoclonal antibody (mAb) to IL-10 or a pAb or mAb to the carrier domain to allow co-localization with pAb or mAbs available (TABLE 46).

[3] = Tablet compression force screening: tablet properties, dimer purity and recovery; format: physicochemical
Method: Various compression forces were used to create F1 tablets (TABLE 31) and F2 tablets (TABLE 32). Dimer purity of the target construct was also examined following compaction into a tablet. […] Dimer recovery was also assessed following dissolution of various tablets at pH 7.0 (FIGS. 20A-20D).
An additional tablet (F3) was created, which was similar to an F1 tablet but with glyceryl dibehenate in place of magnesium stearate (TABLE 33). This substitution was made due to incompatibility of magnesium stearate in dissolution of target constructs in solution.

[4] = Phase 1a single ascending dose in healthy male volunteers; format: in vivo, human; settings: 60 and 120 mg
Method: In part B of the study, early data was gathered on the safety and tolerability, pharmacokinetics, pharmacodynamics and early clinical response following multiple ascending doses of the IL-10 delivery construct in Ulcerative Colitis (UC) patients (Part B).
Part A consisted of a single-ascending dose (SAD) escalation in healthy male volunteers. Six cohorts consisting of orally administered single ascending doses were conducted. At each dose level, 6 subjects were enrolled, randomized 2:4 to receive a single dose of placebo or the IL-10 delivery construct on day 1. The doses selected were 1 mg, 3 mg, 10 mg, 30 mg, 60 mg, and 120 mg.
Pre-clinical models have identified peripheral IL-1Ra production as a marker of IL-10 engagement to IL-10R in mucosal lymphocytes. To determine if the IL-10 delivery construct was actively transported across the epithelial cell lining into the Lamina propria and able to interact with lymphocytes, the levels of IL-1Ra induction was assessed.

STAT3 phosphorylation = assay: In vivo pSTAT3 induction after intraluminal injection or oral gavage; design: species or system Balb/C mice; settings: intraluminal injection, jejunum
Method: In vivo studies in mice were performed where the biological activity of human IL-10 following transcytosis was assessed for its ability to stimulate the mouse IL-10 receptor and increase phosphorylation of STAT3 (pSTAT3) in cells within the Lamina propria.
An extensive amount of rhIL-10 (SEQ ID NO: 5) was trafficked through enterocytes. Additionally, there were a population of lymphocyte-like cells at the basolateral surface of enterocytes and within the Lamina propria that were pSTAT3 positive.
Entire intestines of mice were isolated and processed as a “swiss role” and localization of pSTAT3 was detected by immunofluorescence confocal microscopy (FIG. 110).

DSS-induced colitis = format: in vivo, C57BL6/J mice

B1: IL-10 delivery construct: recombinant homodimeric fusion protein: N-terminal methionine, cholix386 domain, polyGlySer spacer, recombinant human IL-10 (protein)
chain: MVEEALNIFDECRSPCSLTPEPGKPIQSKLSIPSDVVLDEGVLYYSMTINDEQNDIKDEDKGESIITIGEFATVRATRHYVNQDAPFGVIHLDITTENGTKTYSYNRKEGEFAINWLVPIGEDSPASIKISVDELDQQRNIIEVPKLYSIDLDNQTLEQWKTQGNVSFSVTRPEHNIAISWPSVSYKAAQKEGSRHKRWAHWHTGLALCWLVPMDAIYNYITQQNCTLGDNWFGGSYETVAGTPKVITVKQGIEQKPVEQRIHFSKGNAMSALAAHRVCGVPLETLARSRKPRDLTDDLSCAYQAQNIVSLFVATRILFSHLDSVFTLNLDEQEPEVAERLSDLRRINENNPGMVTQVLTVARQIYNDYVTHHPGLTPEQTSAGAQAGGGGSGGGGSGGGGSPGQGTQSENSCTHFPGNLPNMLRDLRDAFSRVKTFFQMKDQLDNLLLKESLLEDFKGYLGCQALSEMIQFYLEEVMPQAENQDPDIKAHVNSLGENLKTLRLRLRRCHRFLPCENKSKAVEQVKNAFNKLQEKGIYKAMSEFDIFINYIEAYMTMKIRN
modifications: homodimer
With B1 the “plasma construct concentration relative to total IL-10” value ([1]; 3 mg and 10 mg) was 10 fold lower, the “time to detection of total IL-10 in plasma” value ([1]; 1, 3, 10 mg pan-colonic) was at most 15 min and the “systemic IL-6” value ([1]; 3 and 10 mg) was “moderately induced”. The “systemic IFN-γ, IL-1β, IL-2, IL-8” value ([1]; cynomolgus monkey, in vivo) was “did not lead to an increase”, the “time of maximal plasma IL-1Ra” value ([1]; cynomolgus monkey, in vivo) was 3 to 4 h and the “time by which extensive amount reached the Lamina propria” value ([2]; 1-minute pulse, intraluminal injection) was at most 15 min. The “co-localization with LAMP1-positive lysosomes in enterocytes” value ([2]; 15-minute time course) was “little or no co-localization”, the “co-localization with CD3 antigen (T lymphocytes)” value ([2]; Lamina propria) was “striking co-localizations” and the “co-localization with CD19-positive cells (B-lymphocytes)” value ([2]; Lamina propria) was “failed to co-localize”. For the same molecule, the “co-localization with CD34-positive cells (endothelia)” value ([2]; Lamina propria) was “failed to co-localize”, the “co-localization with CD11c antigen (dendritic cells)” value ([2]; Lamina propria, rat jejunum) was “did not co-localize with CD11c antigen to any striking extent” and the “robustness of protein to compaction, granulation and tableting (dimer purity)” value [3] was “robust to compaction and granulation, although some aggregation was observed in final tablet form”. For the same molecule, the “IL-1Ra induction at high dose” value [4] was “loss of immunomodulatory activity”, the “phosphorylation of STAT3 in cells within the Lamina propria” value (STAT3 phosphorylation) was “increased phosphorylation of STAT3” and the “edema width, mid colon” value (DSS-induced colitis; 30 mg/kg) was “significantly improved”. The “hyperplasia, mid colon” value (DSS-induced colitis; 30 mg/kg) was “significantly improved”, the “mucosal thickness, mid colon” value (DSS-induced colitis; 30 mg/kg) was “significantly improved” and the “colon length vs vehicle” value (DSS-induced colitis; 10 and 30 mg/kg, p<0.05) was “Significant improvement”. For the same molecule, the “DSS-induced body weight loss” value (DSS-induced colitis; construct 30 mg/kg, CsA 75 mg/kg, oral q.d.) was “significantly reduced DSS-induced weight loss”.
